Tested on: MS2 coat protein
Test: apparent KD of MS2 coat protein; designed switch direction (-1 OFF switch, 1 ON switch): 1; higher = weaker reporter binding
Outline: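 Designed RNA switches with common flanks were made on Illumina chips by stalled E. coli RNA polymerase. Titration with SNAP-549-labelled MS2 coat protein doubled from 0.7 or 1.5 nM up to 3 µM. Apparent KD is each design's median over clusters after curve-fitting normalised fluorescence.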

[1] = input ligand: microRNA oligo, concentration not stated
[2] = Eterna round: R95, input ligand: FMN 200 uM
[3] = Eterna round: R95, input ligand: microRNA oligo, concentration not stated
[4] = Eterna round: R95, input ligand: none

Sequence | apparent KD of MS2 coat protein (input ligand: FMN 200 uM) | apparent KD of MS2 coat protein [1] | apparent KD of MS2 coat protein (input ligand: none) | apparent KD of MS2 coat protein [2] | apparent KD of MS2 coat protein [3] | apparent KD of MS2 coat protein [4]
AGGGUCGUGCUAGGAUAUCUAGGAUAUGGACGAGGAUUACCCGAGCAGCAUUAGCGCACCAGAGGAGAGAAGGAGCGUGAUGCG [pwkr ssNG2 2F5 2FMN.10] (Eterna round: R96, puzzle: Same State NG 2) | 0.329 µM | 0.00276 µM | 0.0637 µM | – | – | –
AGUAGUGUAACAUGAGGAUCACCCAUGUAAGAAUAUGUAACCUAGGAUAUGGAGGUUAUGUUUGACCAGAAGGAGGAUUGUUUA [JR_SSNG3_Sub041] (Eterna round: R96, puzzle: Same State NG 3) | 0.027 µM | 0.0203 µM | 0.0259 µM | – | – | –
AGUCCAGCAUAAGCUGGACAAAAGCAUGUACAUGAGGAUCACCCAUGUUCAUGUACAAGCUUUUUGCUCGUCAAAAG [Mat - hsa-mir-208a - Mod of JL - 71] (puzzle: Sensor for hsa-mir-208a) | – | – | – | 0.215 µM | 0.0226 µM | 0.297 µM
AGUCCAGCCAGAGCUGGACAAAAGCAUGUACAUGAGGAUCACCCAUGUCAUGUACAAGCUUUUUGCUCGUCUUAAAA [Mat - hsa-mir-208a - Mod of JL - D2] (puzzle: Sensor for hsa-mir-208a) | – | – | – | 0.415 µM | 0.0137 µM | 0.523 µM
AGUCCAGCCAGAGCUGGACAAAAGCAUGUACAUGAGGAUCACCCAUGUUCAUGUACAAGCUUUUUGCUCGUCUUAAA [Mat - hsa-mir-208a - Mod of JL - 55] (puzzle: Sensor for hsa-mir-208a) | – | – | – | 0.545 µM | 0.015 µM | –
AGUCCAGCCUAAGCUGGACAAAAGCAUGUACAUGAGGAUCACCCAUGUUCAUGUACAAGCUUUUUGCUCGUCUUAAA [Mat - hsa-mir-208a - Mod of JL - 54] (puzzle: Sensor for hsa-mir-208a) | – | – | – | 0.544 µM | 0.0151 µM | 0.447 µM
AGUCCAGCCUGAGCUGGACAAAAGCAUGUACAUGAGGAUCACCCAUGUCAUGUACAAGCUUUUUGCUCGUCUUAAAU [Mat - hsa-mir-208a - Mod of JL - D22] (puzzle: Sensor for hsa-mir-208a) | – | – | – | 0.585 µM | 0.0164 µM | 0.584 µM
AGUCCAGCCUGAGCUGGACAAAAGCAUGUACAUGAGGAUCACCCAUGUCAUGUACAAGCUUUUUGCUCGUCUUGAAA [Zipper 46 - 9] (puzzle: Sensor for hsa-mir-208a) | – | – | – | 0.737 µM | 0.0168 µM | 0.807 µM
AGUCCAGCCUGAGCUGGACAAAAGCAUGUACAUGAGGAUCACCCAUGUCAUGUACAAGUUUUUUGCUCGUCUUAAUA [Zipper 49 - 12] (puzzle: Sensor for hsa-mir-208a) | – | – | – | 0.0469 µM | 0.0111 µM | 0.0531 µM
AGUCCAGCCUGAGCUGGACAAAAGCAUGUACAUGAGGAUCACCCAUGUUAUGUACAAGCUUUUUGCUCGUCUUAAAA [Zipper 46 - 15] (puzzle: Sensor for hsa-mir-208a) | – | – | – | 0.165 µM | 0.013 µM | 0.153 µM
AGUCCAGCCUGAGCUGGACAAAAGCAUGUACAUGAGGAUCACCCAUGUUCAUGUACAAGCUUUUUGCUCGUUUUAAA [Zipper 52 - 8] (puzzle: Sensor for hsa-mir-208a) | – | – | – | 0.523 µM | 0.0135 µM | 0.546 µM

— the supplement of paper PMC9170038
